± gives the standard deviation of the averaged measurements.
Tested on: ATP
Assay: switch fluorescence ratio, 500 uM ATP over buffer (Cy3 cluster intensity, sum of 5 cycles each) (fold (ratio)); higher = stronger signal-on switching upon ATP binding; sequences stand for … in TCGTCGGCAGCGTCAGATGTGTATAAGAGACAGTTTTTTTTTTTTTTTTTTTTTTTTT…TC
Settings: aptamer strand: ATP DNA aptamer (quencher-CACCTGGGGGAGTATTGCGGAGGAAGG + anchor), 100 nM annealed; ATP concentration: 500 uM
Method in brief: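 Between each of five buffer/ATP cycles, the flow-cell was stripped with NaOH and re-annealed. Each cycle imaged Cy3-labelled switching-strand clusters, annealed to 100 nM quencher-labelled ATP aptamer on a modified Illumina MiSeq flow-cell, first in selection buffer and then after 15 min with 500 uM ATP at 22 °C. The fluorescence ratio is summed target-cycle over summed buffer-cycle Cy3 intensity per cluster, averaged per switch-domain sequence, with clusters outside 100-1000 RFU excluded.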
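Note: ATP exposure 15 min at 22 °C before imaging.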

Sequence	switch fluorescence ratio
TTTCGGGTGC	1.05 ± 0.056
TTTCGGTAGT	0.995 ± 0.026
TTTCGTATTT	0.992 ± 0.046
TTTCGTCTGG	0.955 ± 0.062
TTTCGTGGGA	0.999 ± 0.04
TTTCGTTATT	1.34 ± 0.73
TTTCGTTTTA	0.996 ± 0.033
TTTCTAAGGA	0.978 ± 0.017
TTTCTAGAGA	1 ± 0.021
TTTCTAGCGG	1.01 ± 0.054
TTTCTAGGTG	2.06 ± 0.23
TTTCTATGCG	0.959 ± 0.025
TTTCTCAGTG	0.969 ± 0.011
TTTCTGACGG	1.35 ± 0.58
TTTCTGGTAA	1.08 ± 0.034
TTTCTGGTCG	0.964 ± 0.019
TTTCTGGTGC	1.16 ± 0.085
TTTCTGGTTG	1.022 ± 0.0078
TTTCTGTACG	1.1 ± 0.068
TTTCTGTGCG	1.001 ± 0.0072
TTTCTGTTCG	0.989 ± 0.024
TTTCTTCCAT	1.05 ± 0.1
TTTCTTGGGC	1.007 ± 0.0018
TTTCTTGGTA	1.02 ± 0.024
TTTCTTGGTT	0.991 ± 0.016

Sequence	switch fluorescence ratio
TTTCTTTGTT	1.04 ± 0.096
TTTGAAAATT	0.99 ± 0.06
TTTGAAAGGC	1.76 ± 1.1
TTTGAAAGGT	1.04 ± 0.072
TTTGAAAGTG	0.999 ± 0.015
TTTGAAATTT	1.006 ± 0.0096
TTTGAACGTT	1 ± 0.037
TTTGAAGGGT	1.0199 ± 0.00081
TTTGAAGGTG	1.45 ± 0.17
TTTGAATATA	0.985 ± 0.022
TTTGAATGAT	0.984 ± 0.015
TTTGAATGGA	1 ± 0.012
TTTGAATTAC	1.17 ± 0.062
TTTGAATTAG	1 ± 0.039
TTTGAATTGG	0.996 ± 0.017
TTTGAATTTA	1 ± 0.039
TTTGACAGCC	1.06 ± 0.042
TTTGACGGGG	1.04 ± 0.096
TTTGACTTAG	1.02 ± 0.043
TTTGACTTTA	1.003 ± 0.0029
TTTGAGAAAT	0.994 ± 0.029
TTTGAGATTT	0.9974 ± 0.009
TTTGAGGATA	1.07 ± 0.021
TTTGAGGGGA	1 ± 0.011
TTTGAGGGGC	0.995 ± 0.024

Sequence	switch fluorescence ratio
TTTGAGGTAA	1.008 ± 0.0083
TTTGAGGTCC	1 ± 0.07
TTTGAGGTGC	1.06 ± 0.031
TTTGAGTATT	0.992 ± 0.047
TTTGAGTGCT	0.997 ± 0.029
TTTGAGTTAA	0.994 ± 0.037
TTTGAGTTGG	1 ± 0.02
TTTGATAATA	1.02 ± 0.056
TTTGATACCA	1.005 ± 0.0051
TTTGATAGGA	0.975 ± 0.02
TTTGATATCC	1 ± 0.017
TTTGATATGC	1.116 ± 0.0054
TTTGATATTC	0.971 ± 0.022
TTTGATCCTG	0.9711 ± 0.0081
TTTGATCTGT	0.984 ± 0.012
TTTGATGGGA	1.025 ± 0.0068
TTTGATGGTA	0.943 ± 0.026
TTTGATTCAC	1.02 ± 0.041
TTTGATTGAA	0.975 ± 0.03
TTTGATTGGT	0.99 ± 0.038
TTTGATTTAC	1 ± 0.028
TTTGATTTCG	1.01 ± 0.024
TTTGCAAAGG	1.007 ± 0.0022
TTTGCACAGT	1.01 ± 0.021
TTTGCACATT	1.02 ± 0.069

Sequence	switch fluorescence ratio
TTTGCACGTA	0.991 ± 0.084
TTTGCAGAAA	0.996 ± 0.018
TTTGCAGAAT	1.006 ± 0.0094
TTTGCAGACA	1.01 ± 0.027
TTTGCAGGGG	1.06 ± 0.1
TTTGCAGTTT	0.997 ± 0.024
TTTGCATGCT	1.024 ± 0.0036
TTTGCATTAG	1.11 ± 0.028
TTTGCATTCA	0.999 ± 0.038
TTTGCCAGAC	1.23 ± 0.24
TTTGCCCTTT	1.24 ± 0.32
TTTGCCGCGT	1.03 ± 0.012
TTTGCCTGAC	1.57 ± 0.37
TTTGCGAGAG	1.01 ± 0.045
TTTGCGATTT	1.15 ± 0.14
TTTGCGGCGT	0.986 ± 0.022
TTTGCGGTTT	1.02 ± 0.046
TTTGCGTTGT	1.022 ± 0.0061
TTTGCTCAGG	1.09 ± 0.037
TTTGCTGGAT	1.08 ± 0.046
TTTGCTTTCC	1.2 ± 0.17
TTTGCTTTGT	1.01 ± 0.023
TTTGGAACAT	1.01 ± 0.042
TTTGGAATTG	0.988 ± 0.016
TTTGGAATTT	1.06 ± 0.1

Sequence	switch fluorescence ratio
TTTGGACAAG	1 ± 0.061
TTTGGACTGG	1.01 ± 0.067
TTTGGACTGT	0.988 ± 0.019
TTTGGAGACT	1.03 ± 0.02
TTTGGATGTG	0.984 ± 0.032
TTTGGCACGC	1.11 ± 0.04
TTTGGCAGGT	1.03 ± 0.026
TTTGGCATTA	1.09 ± 0.1
TTTGGCCCCG	0.9612 ± 0.0093
TTTGGCTCTG	1.03 ± 0.025
TTTGGCTTGT	0.9714 ± 0.0068
TTTGGGAA	1.03 ± 0.015
TTTGGGAAAT	1.07 ± 0.1
TTTGGGAAGC	1.02 ± 0.033
TTTGGGAGCA	0.9882 ± 0.0022
TTTGGGAGGT	0.99 ± 0.063
TTTGGGCAAG	1.06 ± 0.043
TTTGGGCACT	0.996 ± 0.024
TTTGGGCCGA	0.987 ± 0.028
TTTGGGCCTC	0.9842 ± 0.0021
TTTGGGCCTT	1.02 ± 0.034
TTTGGGCGAA	1.002 ± 0.0068
TTTGGGCTTG	1.013 ± 0.0054
TTTGGGGAAA	1.16 ± 0.42
TTTGGGGACA	1.01 ± 0.019

Sequence	switch fluorescence ratio
TTTGGGGGTT	1.01 ± 0.039
TTTGGGTAAT	1.21 ± 0.39
TTTGGGTGAG	0.993 ± 0.023
TTTGGGTGAT	1.02 ± 0.022
TTTGGGTTTT	1.01 ± 0.054
TTTGGTAAAA	1.01 ± 0.037
TTTGGTAAGC	1.02 ± 0.036
TTTGGTACCC	1.01 ± 0.029
TTTGGTCAGA	0.973 ± 0.049
TTTGGTCGGA	1.019 ± 0.0039
TTTGGTCGGT	0.986 ± 0.081
TTTGGTCTTT	1 ± 0.02
TTTGGTGATA	0.943 ± 0.01
TTTGGTGGGG	1.01 ± 0.029
TTTGGTGTGC	1.01 ± 0.022
TTTGGTGTTA	1 ± 0.026
TTTGGTTAGC	1.01 ± 0.02
TTTGGTTAGG	0.985 ± 0.019
TTTGGTTATT	1 ± 0.04
TTTGGTTGCT	0.991 ± 0.028
TTTGGTTTAG	1 ± 0.015
TTTGGTTTTA	1.004 ± 0.0077
TTTGTAAAGT	0.976 ± 0.019
TTTGTAAGGC	1.08 ± 0.13
TTTGTAGGCG	0.983 ± 0.13

Sequence	switch fluorescence ratio
TTTGTATAAC	1.01 ± 0.012
TTTGTATTCC	0.991 ± 0.1
TTTGTCAAAA	1 ± 0.025
TTTGTCAGTT	0.956 ± 0.043
TTTGTCATGT	0.976 ± 0.036
TTTGTCCGGT	0.971 ± 0.018
TTTGTGCAGG	1.04 ± 0.046
TTTGTGCCGG	1.012 ± 0.007
TTTGTGGAGC	1.04 ± 0.071
TTTGTGGAGG	0.999 ± 0.023
TTTGTGGGAC	1.11 ± 0.066
TTTGTGGGGA	1 ± 0.026
TTTGTGGGTT	0.997 ± 0.025
TTTGTGTAGT	0.986 ± 0.065
TTTGTGTCAC	0.984 ± 0.034
TTTGTGTCTT	0.967 ± 0.024
TTTGTGTGGC	0.99 ± 0.084
TTTGTTAAGG	1.01 ± 0.019
TTTGTTAAGT	1.01 ± 0.05
TTTGTTAATT	0.996 ± 0.039
TTTGTTAGC	1.03 ± 0.019
TTTGTTATGC	1.03 ± 0.032
TTTGTTGAC	0.998 ± 0.024
TTTGTTGGAA	0.99 ± 0.025
TTTGTTGGCT	0.972 ± 0.058

Sequence	switch fluorescence ratio
TTTGTTGGGG	1.02 ± 0.011
TTTGTTGTAT	1 ± 0.032
TTTGTTGTTA	0.994 ± 0.031
TTTGTTTACT	0.99165 ± 0.00046
TTTGTTTCAA	0.982 ± 0.013
TTTGTTTCAT	1.04 ± 0.1
TTTGTTTCGT	1.03 ± 0.11
TTTGTTTGGG	0.998 ± 0.033
TTTGTTTTCG	1.02 ± 0.041
TTTGTTTTGC	0.971 ± 0.019
TTTGTTTTGG	1.03 ± 0.025
TTTTAAAAGG	0.99 ± 0.037
TTTTAAACCG	1.05 ± 0.17
TTTTAAACTT	1.09 ± 0.15
TTTTAACCTG	1.01 ± 0.046
TTTTAACGGG	0.998 ± 0.027
TTTTAACTTC	1 ± 0.014
TTTTAAGAGA	1.01 ± 0.017
TTTTAAGCTA	1.12 ± 0.2
TTTTAAGGG	1.02 ± 0.022
TTTTAAGTGA	1.02 ± 0.05
TTTTAATACC	1 ± 0.023
TTTTAATAGT	1.01 ± 0.018
TTTTAATCCC	1.07 ± 0.062
TTTTAATCGA	1.02 ± 0.043

— the supplement of paper PMC10126150
